Measured values as given in the supplement of paper PMC10567573.

B1: GLT8D2 (parent)
chain: QEAKLLHWNGRHKPWDFPSVHNDL

Variants of: B1
Experiment: protein stability index of a GFP-peptide fusion (GPS, HEK-293T) (PSI 1-6); higher = more stable
Settings: c terminus: a fixed tail appended
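Further: lentivirally expressed fusions sorted by FACS into six bins by GFP to DsRed ratio, PSI derived from sequencing read proportions per bin multiplied by bin number.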

Row | Variant | protein stability index
1 | QEAKLLHWNGRHKPWDFDSVHNDL | 3.06
2 | QEAKLLHWNGRHKPWDFFSVHNDL | 2.18
3 | QEAKLLHWNGRHKPWDFISVHNDL | 2.23
4 | QEAKLLHWNGRHKPWDFWSVHNDL | 1.8
5 | QEAKLLHWNGRHKPWDFKSVHNDL | 2.99
6 | QEAKLLHWNGRHKPWDFASVHNDL | 2.23
7 | QEAKLLHWNGRHKPWDFMSVHNDL | 2.26
8 | QEAKLLHWNGRHKPWDFQSVHNDL | 2.83
9 | QEAKLLHWNGRHKPWDFVSVHNDL | 2.82
10 | QEAKLLHWNGRHKPWDFRSVHNDL | 2.41
11 | QEAKLLHWNGRHKPWDFHSVHNDL | 2.58
12 | QEAKLLHWNGRHKPWDFTSVHNDL | 2.32
13 | QEAKLLHWNGRHKPWDFLSVHNDL | 2.25
14 | QEAKLLHWNGRHKPWDFCSVHNDL | 2.6
15 | QEAKLLHWNGRHKPWDFESVHNDL | 2.98
16 | QEAKLLHWNGRHKPWDFYSVHNDL | 2.24
17 | QEAKLLHWNGRHKPWDFNSVHNDL | 2.72
18 | QEAKLLHWNGRHKPWDFSSVHNDL | 2.59
19 | QEAKLLHWNGRHKPWDFGSVHNDL | 2.32
20 | QEAKLLHWNGRHKPWDFPSVHNLL | 1.48
21 | QEAKLLHWNGRHKPWDFPSVHNRL | 1.88
22 | QEAKLLHWNGRHKPWDFPSVHNWL | 2.48
23 | QEAKLLHWNGRHKPWDFPSVHNFL | 2.6
24 | QEAKLLHWNGRHKPWDFPSVHNPL | 2.27

Row | Variant | protein stability index
25 | QEAKLLHWNGRHKPWDFPSVHNHL | 2.38
26 | QEAKLLHWNGRHKPWDFPSVHNYL | 1.98
27 | QEAKLLHWNGRHKPWDFPSVHNSL | 2.17
28 | QEAKLLHWNGRHKPWDFPSVHNEL | 2.72
29 | QEAKLLHWNGRHKPWDFPSVHNVL | 2.81
30 | QEAKLLHWNGRHKPWDFPSVHNNL | 1.86
31 | QEAKLLHWNGRHKPWDFPSVHNQL | 2.4
32 | QEAKLLHWNGRHKPWDFPSVHNKL | 3.01
33 | QEAKLLHWNGRHKPWDFPSVHNCL | 2.43
34 | QEAKLLHWNGRHKPWDFPSVHNGL | 2.23
35 | QEAKLLHWNGRHKPWDFPSVHNML | 1.92
36 | QEAKLLHWNGRHKPWDFPSVHNTL | 2.55
37 | QEAKLLHWNGRHKPWDFPSVHNAL | 1.96
38 | QEAKLLHWNGRHKPWDFPSVHNIL | 2.27
39 | QEAKLLHWNGRHKPWDFPKVHNDL | 2.6
40 | QEAKLLHWNGRHKPWDFPYVHNDL | 2.12
41 | QEAKLLHWNGRHKPWDFPTVHNDL | 2.33
42 | QEAKLLHWNGRHKPWDFPQVHNDL | 2.95
43 | QEAKLLHWNGRHKPWDFPHVHNDL | 2.58
44 | QEAKLLHWNGRHKPWDFPPVHNDL | 2.7
45 | QEAKLLHWNGRHKPWDFPNVHNDL | 2.84
46 | QEAKLLHWNGRHKPWDFPMVHNDL | 2.79
47 | QEAKLLHWNGRHKPWDFPWVHNDL | 1.61
48 | QEAKLLHWNGRHKPWDFPIVHNDL | 2.5

Row | Variant | protein stability index
49 | QEAKLLHWNGRHKPWDFPAVHNDL | 3.21
50 | QEAKLLHWNGRHKPWDFPDVHNDL | 3.43
51 | QEAKLLHWNGRHKPWDFPLVHNDL | 1.96
52 | QEAKLLHWNGRHKPWDFPVVHNDL | 2.56
53 | QEAKLLHWNGRHKPWDFPFVHNDL | 2.31
54 | QEAKLLHWNGRHKPWDFPCVHNDL | 2.38
55 | QEAKLLHWNGRHKPWDFPRVHNDL | 2.38
56 | QEAKLLHWNGRHKPWDFPGVHNDL | 2.51
57 | QEAKLLHWNGRHKPWDFPEVHNDL | 3.92
58 | QEAKLLHWNGRHKPWDFPSVHNDC | 3.01
59 | QEAKLLHWNGRHKPWDFPSVHNDA | 3.33
60 | QEAKLLHWNGRHKPWAFPSVHNDL | 1.96
61 | QEAKLLHWNGRHKPWGFPSVHNDL | 2.39
62 | QEAKLLHWNGRHKPWCFPSVHNDL | 1.55
63 | QEAKLLHWNGRHKPWKFPSVHNDL | 2.26
64 | QEAKLLHWNGRHKPWFFPSVHNDL | 1.58
65 | QEAKLLHWNGRHKPWVFPSVHNDL | 2.12
66 | QEAKLLHWNGRHKPWHFPSVHNDL | 2.09
67 | QEAKLLHWNGRHKPWRFPSVHNDL | 2.33
68 | QEAKLLHWNGRHKPWWFPSVHNDL | 2.5
69 | QEAKLLHWNGRHKPWQFPSVHNDL | 2.48
70 | QEAKLLHWNGRHKPWIFPSVHNDL | 2.37
71 | QEAKLLHWNGRHKPWEFPSVHNDL | 2.69
72 | QEAKLLHWNGRHKPWYFPSVHNDL | 1.87

Row | Variant | protein stability index
73 | QEAKLLHWNGRHKPWTFPSVHNDL | 2.62
74 | QEAKLLHWNGRHKPWLFPSVHNDL | 2.32
75 | QEAKLLHWNGRHKPWNFPSVHNDL | 2.42
76 | QEAKLLHWNGRHKPWSFPSVHNDL | 2.46
77 | QEAKLLHWNGRHKPWMFPSVHNDL | 2.12
78 | QEAKLLHWNGRHKPWPFPSVHNDL | 2.46
79 | QEAKLLHWNGRHKPWDFPSVHWDL | 2.08
80 | QEAKLLHWNGRHKPWDFPSVHRDL | 2.35
81 | QEAKLLHWNGRHKPWDFPSVHTDL | 2.5
82 | QEAKLLHWNGRHKPWDFPSVHYDL | 1.91
83 | QEAKLLHWNGRHKPWDFPSVHCDL | 2.11
84 | QEAKLLHWNGRHKPWDFPSVHQDL | 2.79
85 | QEAKLLHWNGRHKPWDFPSVHSDL | 2.33
86 | QEAKLLHWNGRHKPWDFPSVHADL | 2.9
87 | QEAKLLHWNGRHKPWDFPSVHIDL | 2.06
88 | QEAKLLHWNGRHKPWDFPSVHVDL | 1.92
89 | QEAKLLHWNGRHKPWDFPSVHKDL | 2.7
90 | QEAKLLHWNGRHKPWDFPSVHLDL | 2.53
91 | QEAKLLHWNGRHKPWDFPSVHEDL | 3.2
92 | QEAKLLHWNGRHKPWDFPSVHDDL | 3.27
93 | QEAKLLHWNGRHKPWDFPSVHMDL | 2.01
94 | QEAKLLHWNGRHKPWDFPSVHGDL | 2.63
95 | QEAKLLHWNGRHKPWDFPSVHFDL | 2.08
96 | QEAKLLHWNGRHKPWDFPSVHHDL | 2.47

Row | Variant | protein stability index
97 | QEAKLLHWNGRHKPWDFPSVHPDL | 2.57
98 | QEAKLLHWNGRHKPMDFPSVHNDL | 3.48
99 | QEAKLLHWNGRHKPIDFPSVHNDL | 3.02
100 | QEAKLLHWNGRHKPDDFPSVHNDL | 3.59
101 | QEAKLLHWNGRHKPVDFPSVHNDL | 3.49
102 | QEAKLLHWNGRHKPADFPSVHNDL | 3.7
103 | QEAKLLHWNGRHKPHDFPSVHNDL | 3.17
104 | QEAKLLHWNGRHKPKDFPSVHNDL | 3.27
105 | QEAKLLHWNGRHKPTDFPSVHNDL | 3.3
106 | QEAKLLHWNGRHKPPDFPSVHNDL | 3.81
107 | QEAKLLHWNGRHKPLDFPSVHNDL | 2.87
108 | QEAKLLHWNGRHKPCDFPSVHNDL | 3.22
109 | QEAKLLHWNGRHKPFDFPSVHNDL | 2.88
110 | QEAKLLHWNGRHKPNDFPSVHNDL | 3.43
111 | QEAKLLHWNGRHKPGDFPSVHNDL | 3.76
112 | QEAKLLHWNGRHKPQDFPSVHNDL | 4.37
113 | QEAKLLHWNGRHKPSDFPSVHNDL | 3.52
114 | QEAKLLHWNGRHKPEDFPSVHNDL | 4.14
115 | QEAKLLHWNGRHKPYDFPSVHNDL | 2.62
116 | QEAKLLHWNGRHKPRDFPSVHNDL | 3.55
117 | QEAKLLHWNGRHKQWDFPSVHNDL | 2.27
118 | QEAKLLHWNGRHKIWDFPSVHNDL | 2.03
119 | QEAKLLHWNGRHKVWDFPSVHNDL | 2.09
120 | QEAKLLHWNGRHKHWDFPSVHNDL | 2.63

Row | Variant | protein stability index
121 | QEAKLLHWNGRHKWWDFPSVHNDL | 2.19
122 | QEAKLLHWNGRHKFWDFPSVHNDL | 2.45
123 | QEAKLLHWNGRHKMWDFPSVHNDL | 2.36
124 | QEAKLLHWNGRHKYWDFPSVHNDL | 2.09
125 | QEAKLLHWNGRHKLWDFPSVHNDL | 2.33
126 | QEAKLLHWNGRHKGWDFPSVHNDL | 2.87
127 | QEAKLLHWNGRHKRWDFPSVHNDL | 2.56
128 | QEAKLLHWNGRHKKWDFPSVHNDL | 2.69
129 | QEAKLLHWNGRHKSWDFPSVHNDL | 2.68
130 | QEAKLLHWNGRHKNWDFPSVHNDL | 2.66
131 | QEAKLLHWNGRHKTWDFPSVHNDL | 2.52
132 | QEAKLLHWNGRHKPWDRPSVHNDL | 3.04
133 | QEAKLLHWNGRHKPWDGPSVHNDL | 3.15
134 | QEAKLLHWNGRHKPWDHPSVHNDL | 3.24
135 | QEAKLLHWNGRHKPWDDPSVHNDL | 3.36
136 | QEAKLLHWNGRHKPWDIPSVHNDL | 3.1
137 | QEAKLLHWNGRHKPWDCPSVHNDL | 3.14
138 | QEAKLLHWNGRHKPWDSPSVHNDL | 3.96
139 | QEAKLLHWNGRHKPWDVPSVHNDL | 3.18
140 | QEAKLLHWNGRHKPWDYPSVHNDL | 2.81
141 | QEAKLLHWNGRHKPWDEPSVHNDL | 4.18
142 | QEAKLLHWNGRHKPWDLPSVHNDL | 3.05
143 | QEAKLLHWNGRHKPWDMPSVHNDL | 3.22
144 | QEAKLLHWNGRHKPWDTPSVHNDL | 3.17

Row | Variant | protein stability index
145 | QEAKLLHWNGRHKPWDAPSVHNDL | 3.45
146 | QEAKLLHWNGRHKPWDPPSVHNDL | 3.24
147 | QEAKLLHWNGRHKPWDWPSVHNDL | 2.58
148 | QEAKLLHWNGRHKPWDNPSVHNDL | 2.85
149 | QEAKLLHWNGRHKPWDKPSVHNDL | 3.16
150 | QEAKLLHWNGRHKPWDQPSVHNDL | 3.3
151 | QEAKLLHWNGRHKPWDFPSVSNDL | 3.21
152 | QEAKLLHWNGRHKPWDFPSVINDL | 2.77
153 | QEAKLLHWNGRHKPWDFPSVENDL | 3.46
154 | QEAKLLHWNGRHKPWDFPSVLNDL | 2.39
155 | QEAKLLHWNGRHKPWDFPSVVNDL | 2.67
156 | QEAKLLHWNGRHKPWDFPSVWNDL | 2.18
157 | QEAKLLHWNGRHKPWDFPSVDNDL | 3.39
158 | QEAKLLHWNGRHKPWDFPSVCNDL | 2.48
159 | QEAKLLHWNGRHKPWDFPSVRNDL | 3
160 | QEAKLLHWNGRHKPWDFPSVQNDL | 2.94
161 | QEAKLLHWNGRHKPWDFPSVANDL | 2.9
162 | QEAKLLHWNGRHKPWDFPSVFNDL | 2.75
163 | QEAKLLHWNGRHKPWDFPSVNNDL | 2.96
164 | QEAKLLHWNGRHKPWDFPSVPNDL | 2.41
165 | QEAKLLHWNGRHKPWDFPSVKNDL | 2.75
166 | QEAKLLHWNGRHKPWDFPSVMNDL | 3.05
167 | QEAKLLHWNGRHKPWDFPSVYNDL | 2.44
168 | QEAKLLHWNGRHKPWDFPSVTNDL | 3

Row | Variant | protein stability index
169 | QEAKLLHWNGRHKPWDFPSVGNDL | 3.09
170 | QEAKLLHWNGRHKPWDFPSHHNDL | 2.77
171 | QEAKLLHWNGRHKPWDFPSWHNDL | 2.38
172 | QEAKLLHWNGRHKPWDFPSSHNDL | 3
173 | QEAKLLHWNGRHKPWDFPSAHNDL | 2.97
174 | QEAKLLHWNGRHKPWDFPSPHNDL | 2.81
175 | QEAKLLHWNGRHKPWDFPSCHNDL | 2.54
176 | QEAKLLHWNGRHKPWDFPSEHNDL | 3.63
177 | QEAKLLHWNGRHKPWDFPSGHNDL | 2.84
178 | QEAKLLHWNGRHKPWDFPSQHNDL | 3.17
179 | QEAKLLHWNGRHKPWDFPSIHNDL | 2.78
180 | QEAKLLHWNGRHKPWDFPSKHNDL | 2.56
181 | QEAKLLHWNGRHKPWDFPSLHNDL | 2.41
182 | QEAKLLHWNGRHKPWDFPSRHNDL | 2.94
183 | QEAKLLHWNGRHKPWDFPSDHNDL | 3.53
184 | QEAKLLHWNGRHKPWDFPSTHNDL | 2.52
185 | QEAKLLHWNGRHKPWDFPSNHNDL | 3.23
186 | QEAKLLHWNGRHKPWDFPSFHNDL | 2.53
187 | QEAKLLHWNGRHKPWDFPSYHNDL | 2.06
188 | QEAKLLHWNGRHKPWDFPSMHNDL | 2.43
